PMC3814720, “Pro-inflammatory cytokines can act as intracellular modulators of commensal bacterial virulence”

Target: TNF-α (human, UniProt P01375 77-233)
Assay: EMSA; 5-20 uM TNF-α
Conditions: chain copies: 3; label: 32P 5'-end; blunt

Sequence of TNF-α (P01375 77-233): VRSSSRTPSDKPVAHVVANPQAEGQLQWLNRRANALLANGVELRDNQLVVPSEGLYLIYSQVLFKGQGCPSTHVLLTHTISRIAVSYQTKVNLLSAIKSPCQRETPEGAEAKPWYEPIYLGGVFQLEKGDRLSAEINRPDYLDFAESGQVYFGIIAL

B1: app internal region (dsDNA)
DNA 1: GTTTTTTACCAACAGGAGGCTCATTTGGCGACAGTGGCTCACCAATGTTTATCTATGATGCCCAAAAGCAAAAGTG
DNA 2: CACTTTTGCTTTTGGGCATCATAGATAAACATTGGTGAGCCACTGTCGCCAAATGAGCCTCCTGTTGGTAAAAAAC
B1: no binding.
